Series [1] addresses T1, YggS (E. coli PLP-BP), wild type (Escherichia coli) (UniProt P67080).
T1 sequence: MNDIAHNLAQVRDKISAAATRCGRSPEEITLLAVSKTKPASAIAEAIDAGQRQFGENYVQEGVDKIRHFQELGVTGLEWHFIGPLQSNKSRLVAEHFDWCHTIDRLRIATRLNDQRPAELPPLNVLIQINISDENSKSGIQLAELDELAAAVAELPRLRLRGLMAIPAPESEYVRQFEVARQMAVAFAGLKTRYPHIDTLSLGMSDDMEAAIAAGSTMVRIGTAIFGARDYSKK
As to the kind of experiment: EMSA. The conditions noted are these: REMSA with fixed RNA: 10 mM HEPES pH 7.3, 10 mM KCl, 1 mM MgCl2, 1 mM DTT, 5% glycerol, RT 30 min; 5% native PAGE, 0.5x TBE (fixed-protein REMSA: 20 mM HEPES …). Background: Mobility shift assays separate free from complexed probe on a gel.

Series [2] deals with YggS (E. coli PLP-BP), wild type (Escherichia coli). As to the kind of experiment: EMSA. The conditions noted are these: apo-form (no PLP); REMSA with fixed RNA: 10 mM HEPES pH 7.3, 10 mM KCl, 1 mM MgCl2, 1 mM DTT, 5% glycerol, RT 30 min; 5% native PAGE, 0.5x TBE (fixed-protein REMSA: 20 mM HEPES …).

For four substances, Kd results are on record in publication PMC11602438.

“GGGUGGUAACAGUCCGUGGCACGGUAAACUCCACCCGGAGCAAGGCCAAAUAGGGGUUCAUAAGGUACGGCCCGUACUGAACCCGGGUAGGCUGCUUGAGCCAGUGAGCGAUUGCUGGCCUAGAUGAAUGACUGUCCACGACAGAACCCGG [RnpB RNA fragment (210-357)]” came in with a Kd in series [1] of 3.4 µM.
Same read-out and setting: for “GGGUCGCGUGGAAGCCCUGCCUGGGGUUGAAGCGUUAAAACUUAAUCAGGCUAGUUUGUUAGUGGCGUGUCCGUCCGCAGCUGGCAAGCGAAUGUAAAGACUGACUAAGCAUGUAGUACCGAGG [SsrA RNA fragment (198-318)]” the value was 2.8 µM.
In series [2], RnpB RNA fragment (210-357) yielded a Kd of 3.4 µM.
On the same count and under the same terms, for SsrA RNA fragment (198-318) the value was 2.8 µM.

One may read the Kd as a measure of binding affinity in units of concentration.
